Article PMC5131995

Molecular target: recombinant human FcγRIIIa (V158) (human) (UniProt P08637)
Assay: SPR

UniProt P08637, sequence (P08637 17-208): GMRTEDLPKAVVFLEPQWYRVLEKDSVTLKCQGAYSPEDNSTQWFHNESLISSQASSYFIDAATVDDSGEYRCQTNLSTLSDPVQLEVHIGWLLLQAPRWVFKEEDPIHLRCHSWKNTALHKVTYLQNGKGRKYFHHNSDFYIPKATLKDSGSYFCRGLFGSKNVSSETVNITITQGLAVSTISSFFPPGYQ

Row | Substance | Kd
1 | anti-EGFR hIgG1 chimeric mAb with variant hIgG1-Fc from donor vector phIgG-SDIE (from UniProt P01875) | 7.42 nM
2 | anti-EGFR hIgG1 chimeric mAb with variant hIgG1-Fc from donor vector phIgG-mu (from UniProt P01875) | 29.4 nM
